Measurements: US12709641B2, “Tau binding compounds” (VOYAGER THERAPEUTICS, INC., dated 2026)
Changes are numbered by the printed parent chain.

B1: V0035 (antibody, V domains shown)
VH: EAQLQQSGAELVRPGSSVKMSCKTSGYTFTSYGINWVKQRPGQGLEWIGYIYIRNGNTAYNEKFKGKATVTSDTSSSTVYMQLSSLTSEDSAIYFCAGTGTSFTYWGQGTLVTVSA
VL: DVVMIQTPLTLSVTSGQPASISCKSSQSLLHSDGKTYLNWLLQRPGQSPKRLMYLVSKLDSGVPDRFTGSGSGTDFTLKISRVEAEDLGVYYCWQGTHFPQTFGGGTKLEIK
B2: V0034 (antibody, V domains shown)
VH: B1 VH with A2V, I48V, N55D, T104A
VL: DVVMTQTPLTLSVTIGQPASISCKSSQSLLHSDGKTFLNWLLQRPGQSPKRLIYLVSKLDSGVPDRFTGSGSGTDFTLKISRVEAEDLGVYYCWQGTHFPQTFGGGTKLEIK
B3: V00019 (antibody, V domains shown)
VH: QVQLQQPGAALVRPGSSVKLSCKASGYTFTSSWMHWVKQRPIQGLEWIGNIDPSDGETHYNQKFKDKATLTVDKSSNTAYMQLSSLTSEDSAVYYCARWDDYYVAYWGQGTLVTVSA
VL: DIVLTQSPASLAVSLGQRATISCRASKSVSTSGYSYMHWYQQKPGQPPKLLIYLASNLESGVPARFSGSGSGTDFTLNIHPVEEEDAATYYCLHSRELPWTFGGGTKLEIK
B4: V00016 (antibody, V domains shown)
VH: EVQLQQSGAELVKPGASVKLSCTASGFNIKDYYIHWVKQRTEQGLEWIGRIDPEDGETKYAPKFQGKATIAADTSSNTAYLHLNSLTSEDTAVYYCAREFSYAMDYWGQGTSVTVSS
VL: NIMMTQSPSSLAVSAGEKVTMSCKSSQSVLYSSNQKNYLAWYQQKPGQSPKLLIYWASTRESGVPDRFTGSGSGTDFTLTISSVQAEDLAVYYCHQYLSSRTFGGGTKLEIK
B5: V0033 (antibody, V domains shown)
VH: EVQLQQSGAELVRPGSSVKMSCKTSGYTFTSYGINWVKQRPGQGLEWIGYIYIGNGHTEYNEKFEGKATLTSDTSSSTAYMQLSSLTSEDSAIYFCAGTGTLFDYWGQGTTLTVSS
VL: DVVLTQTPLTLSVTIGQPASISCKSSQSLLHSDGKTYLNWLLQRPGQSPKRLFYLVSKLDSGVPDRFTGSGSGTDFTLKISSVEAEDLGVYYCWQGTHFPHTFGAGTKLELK
B6: V0020 (antibody, V domains shown)
VH: QVQLQQPGTDLVKPGASVKLSCKASGYTFTSYWMHWLKQRPGQGLEWIGNINPNNSDANYNEKFKSKATLTVDKSSSAAYMQLISLTSEDSAVYYCARANYYGGSQFAYWGQGTLVTVSA
VL: DVVVTQTPLSLPVSLGDQASISCRSSQSLVHSNGKTYLHWYLQKPGQSPNLLIYKVSNRFSGVPDRFSGSGSGTDFTLKISRVEAEDLGVYFCSQSTHVPFTFGSGTKLEIK
B7: V0021 (antibody, V domains shown)
VH: B6 VH with T9I, D10E, P14T, Y32N, D57E, A58T, K65R, S66K
VL: B6 VL with V4M, P12C
B8: V0058 (antibody, V domains shown)
VH: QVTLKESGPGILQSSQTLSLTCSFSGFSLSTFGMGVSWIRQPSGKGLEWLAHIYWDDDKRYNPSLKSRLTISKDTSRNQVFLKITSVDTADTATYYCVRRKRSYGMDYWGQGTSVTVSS
VL: DIVMTQSPSSLSVSAGEKVTMSCKSSQSLLSSGNQKNYLAWYQQKPGQPPKLLIYGASTRESGVPDRFTGSGSGTDFTLTISSVQAEDLAVYYCQNDHSHPYTFGGGTKLEIK
B9: V0050 (antibody, V domains shown)
VH: EVQLQQSGPELVKPGASVKIPCRASGYTFTDYNMDWVKQSHGKTLEWIGDINPNNGGTIYNQKFKGKATLTVDKSSSTAYMELRSLTSEDTAVYYCARGRGMGYYALDYWGQGTSVTVSS
VL: DIQMTQSPASLSASVGETVTFTCGASENVYGALNWYQRKQGKSPQLLIYGATNLADGMSSRFSGSGSGRQYSLKISSLHPDDVATYYCQNVLTIPWTFGGGAKLEIK
B10: V0026 (antibody, V domains shown)
VH: QVQLQQSGPELVKPGASVKISCKASGYSFTDYYINWVKQRPGQGLEWIGWIFPGSDSTYYNEKFKGKATLTVDKSSSTASMLLSSLTSEDSAVYFCARPTVVARDYAMDYWGQGTSVTVSS
VL: DVLMTQTPLSLPVSLGDQASISCRSSQSIVYSNGNTYLEWYLQKPGQSPKLLIYKVSNRFSGVPDRFSGSGSGTDFTLKISRVEAEDLGVYYCFQGSHVPYTFGGGTKLEIK
B11: V0027 (antibody, V domains shown)
VH: B10 VH with S28T, D31E, I34L, V37M, S55R, D56G, Y59N, S80Y, V101I
VL: B10 VL with Y31H, S32R, Y101F, G105S
B12: V0032 (antibody, V domains shown)
VH: QVQLKQSGAELVRPGASVKLSCKTSGYTFTDYYIKWVKQRPGQGLEWIARIYPGSGNTYYNEKFKGKATLTAEKSSSTAYMQLSSLTSEDSAVYFCARPAYYSKDYAMEYWGQGTSVTVSS
VL: B10 VL with S32T
B13: V0031 (antibody, V domains shown)
VH: QVQLQQPGTELVKPGASVKLSCKASGYTFTSYWMHWVKQRPGQGLEWIGNIYPSNGGTYYNEKFKSKATLTVDKSSSTAYMQLSSLTSEDSAVYYCARSSVVGRDYAMDYWGQGTSVTVSS
VL: B10 VL with S22A, Y31H, K50E
B14: V0047 (antibody, V domains shown)
VH: EVQLVESGGGLVKPGGSLKLSCAASGFTFSDYGMHWVRQAPEKGLEWVAYISSGSRTIYYADTVKGRFTISRDNAKNTLFLQMTSLRSEDTAMYYCARSPYAMDYWGQGTSVTVSS
VL: B6 VL with V4M, K35N, N50K, F101W, S105G
B15: V00010 (antibody, V domains shown)
VH: QIQLVQSGPELKKPGETVKISCKASGYSFTTYGMSWVKQAPGKGLKWMGWINTYSGVPTYADDFKERFAFSLETSASTAYLQINNLKNEDTSTYFCARRGGLYDGYYGYWGQGTTLTVSS
VL: DIVMSQSPSSLAVSAGEKVTMSCKSSQSLLSSRTRKNYLAWYQQKPGQSPKLLIYWASTRESGVPDRFTGSGSGTDFTLTITTVQAEDLAVYYCKQSYNLWTFGGGTKLEIK
B16: V00011 (antibody, V domains shown)
VH: EVQLVESGGGLVKPGGSLKLSCAASGFTFSDYGMYWVRQAPEKGLEWVAYISSGSTTIYYADTVKGRFTISRDNAKNTLFLQMTSLRSEDTAMYYCAGHWYFDVWGTGTTVTVSS
VL: B10 VL with L9V, Y31H, Y37H, G96D, Y101W
B17: V0044 (antibody, V domains shown)
VH: DVQLQESGPGLVKPSQSLSLTCSVTGYSITTNYYWNWIRQFPGNKLEWMGYITYDGSNNYNPSLKNRISITRDTSKNQFFLKLNSVTTEDTATYYCARGPPTAYWGQGTLVTVSA
VL: NIVMTQTPKFLPIAAGDRVIMTCKASQSVGNNVGWYQLKPGQSPKLLIYFASNRYTGVPDRFTGSGSGTDFTFTISSVQVEDLAVYFCQQHYSSPLTFGAGTKLELK
B18: V0055 (antibody, V domains shown)
VH: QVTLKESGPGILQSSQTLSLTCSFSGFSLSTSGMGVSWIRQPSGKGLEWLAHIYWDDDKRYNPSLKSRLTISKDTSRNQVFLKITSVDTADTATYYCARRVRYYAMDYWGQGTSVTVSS
VL: B8 VL with S31N
B19: V0057 (antibody, V domains shown)
VH: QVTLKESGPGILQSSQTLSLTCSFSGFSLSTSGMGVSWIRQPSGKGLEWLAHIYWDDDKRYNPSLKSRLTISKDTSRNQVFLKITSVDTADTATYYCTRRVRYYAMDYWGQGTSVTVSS
VL: B8 VL with S31N
B20: V0054 (antibody, V domains shown)
VH: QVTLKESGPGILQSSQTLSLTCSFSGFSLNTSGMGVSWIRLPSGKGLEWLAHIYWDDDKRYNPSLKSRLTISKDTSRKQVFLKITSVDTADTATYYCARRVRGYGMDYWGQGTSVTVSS
VL: B8 VL with S31N, A57T

These binders were tested against wild type tau (Homo sapiens (Human), UniProt P10636-8) (assay: direct ELISA).
Protocol: (§1) Variable domain nucleic acid sequences from antibodies obtained from immunizations described above were used to prepare recombinant mouse IgG antibodies. These candidate antibodies were analyzed for binding to ePHF and specificity for ePHF over wild type tau by direct ELISA.
(§2) For direct ePHF and wildtype tau ELISA, plates were first coated with ePHF or wild type tau. Antigen solutions were prepared in PBS and 50 μL were pipetted into each well. Plates were covered and incubated for one hour at 37° C. or overnight at 4° C. Plates were then washed and blocked by addition of 150 μl of blocking buffer to each well and incubated one hour at room temperature. Plates were then washed before addition of serially diluted candidate antibody samples prepared in blocking buffer. Detection of candidate antibody binding was carried out by washing plates and adding a solution of enzyme-labeled secondary antibody in blocking buffer to each well. Secondary antibody binding was detected by addition of substrate and spectrophotometric analysis of resulting reaction product.

Point of comparison: B1, EC50 0.169 nM. Against it:
- B2 — within 1.5-fold, 0.14 nM
- B3 — 1.7-fold higher, 0.285 nM
- B4 — within 1.5-fold, 0.141 nM
- B5 — 2-fold higher, 0.342 nM

Each binder was assayed against enriched paired helical filament tau protein (ePHF) (human, phosphorylated residues of pathological tau, sites not stated) (assay: direct ELISA).
Protocol: as §1, §2

Point of comparison: B15, EC50 0.134 nM. Against it:
- B6 — 2.6-fold higher, 0.351 nM
- B7 — 4.3-fold higher, 0.571 nM
- B8 — 18-fold higher, 2.45 nM
- B9 — 130-fold higher, 17.9 nM
- B10 — 42-fold higher, 5.61 nM
- B11 — 26-fold higher, 3.51 nM
- B12 — 110-fold higher, 14.3 nM
- B13 — 66-fold higher, 8.8 nM
- B1 — 2.4-fold higher, 0.315 nM
- B2 — 2.6-fold higher, 0.351 nM
- B14 — within 1.5-fold, 0.118 nM
- B16 — within 1.5-fold, 0.171 nM
- B17 — 1.6-fold higher, 0.209 nM

What follows are binders tested against iPHF (Homo sapiens (Human), UniProt P10636-8) (assay: Octet, antibody on biosensor tips).
Protocol: Anti-human tau antibodies were assessed for affinity for iPHF by Octet (ForteBio, Menlo Park, CA) analysis. Recombinant mouse IgG antibodies were prepared with clone-specific variable domain pairs selected from those presented in Table 3 and mouse IgG1 constant domains. Candidate antibodies were immobilized on biosensor tips (ForteBio) in kinetic buffer (ForteBio). Biosensor tips were then washed before introduction of a solution of iPHF in kinetic buffer for analysis of association and dissociation with candidate antibodies. Affinity measurements (K_D) were obtained using Data Analysis HT version 11.1 and corrected for background and high-frequency noise.

Point of comparison: B9, Kd 0.4 nM. Against it:
- B6 — 82-fold higher, 32.7 nM
- B7 — 38-fold higher, 15.1 nM
- B8 — 2.5-fold higher, 1 nM
- B10 — 1.7-fold higher, 0.7 nM
- B18 — 3.2-fold higher, 1.3 nM
- B11 — 26-fold higher, 10.5 nM
- B19 — 43-fold higher, 17.4 nM
- B12 — 44-fold higher, 17.5 nM
- B13 — 140-fold higher, 57.7 nM
- B20 — 260-fold higher, 105 nM
